Laboratory results: patent US20220348685A1 (ACCELERON PHARMA, published 2022)
Where a chain is given by its changes, count along the chain named.

T1: human ALK7-EK-Fc comprising protein (human, UniProt Q8NER5 22-113)
T1 construct: also called ALK7-Fc comprising protein; Human ALK7-Fc comprising protein; not shown: 'EK' segment between ALK7 and Fc; Fc portion
T1 sequence: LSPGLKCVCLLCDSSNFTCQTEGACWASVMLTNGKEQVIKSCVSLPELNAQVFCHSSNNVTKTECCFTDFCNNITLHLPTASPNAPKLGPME

B1: M01 (antibody, V domains shown)
VH: QLQLQESGPGLVKPSETLSLTCTVSGGSISSSAYYWAWIRQPPGKGLEWIGSIYLSGSTTYNPSLKSRVTISVDTSKNQFSLKLSSVTAADTAVYYCARDGRYQSRSPDYYYGMDVWGQGTTVTVSS
VL: EIVLTQSPGTLSLSPGERATLSCRASQSVSDNYLAWYQQKPGQAPRLLIYGASNIATGIPDRFSGSGSGTDFTLTISRLEPEDFAVYYCASVFSYPFTFGGGTKVEIK
notes: Kappa light chain is implied by the anti-kappa reagent and KappaSelect; In SPR the antibody was captured on a custom FAB chip; also called ALK7 mAb M01
B2: N02 (antibody, V domains shown)
VH: B1 VH
VL: B1 VL with D31S, N32S, N54S, I55T, T57Y, A90Q, S91Q, V92L, F93V, S94A
B3: P03 (antibody, V domains shown)
VH: QVQLVQSGAEVKKPGASVKVSCKASGYTFAGYNMHWVRQAPGQGLEWVGIINPNSGWTNYAQKFQGRVTMTRDTSVSAAYMELSRLRSDDTAVYYCARDPVGARYEVFDYWGQGTLVTVSS
VL: EIVMTQSPATLSVSPGERATLSCQASQSVSSNLAWYQQKPGQAPRLLIYGASTIATGIPARFSGSGSGTEFTLTISSLQSEDFAVYYCQQAYAFPLTFGGGTKVEIK
B4: Q04 (antibody, V domains shown)
VH: B3 VH
VL: B3 VL with Q24K, I54R, Y92V, A93K

target: T1, human ALK7-EK-Fc comprising protein; assay: SPR (Biacore T100/T200), antibody captured on FAB chip, ALK7-Fc protein as analyte, 1:1 model
Procedure: Experiments were performed using a Biacore T100/T200 biosensor (Biacore/GE Healthcare) at 25 and 37° C. ALK7 antibodies were captured on custom made FAB chip. A concentration series of ALK7-Fc comprising protein was injected over the flow cells at a flow rate of […]. To obtain kinetic rate constants the corrected data were fit to a 1:1 interaction model using BiaEvaluation software (GE Healthcare). The equilibrium binding constant KD was determined by the ratio of binding rate constants kd/ka.

| Binder | Kd [nM] | koff [s⁻¹] | kon [M⁻¹ s⁻¹] |
| --- | --- | --- | --- |
| B1 | 1 | 4.32e-05 | 43100 |
| B2 | 0.87 | 5.2e-05 | 59800 |
| B3 | 0.39 | 1.43e-05 | 36600 |
| B4 | 1.42 | 4.7e-05 | 33100 |
